Experimental data taken from article PMC4968207.

What was measured:
[1] = target: Germline κI O18/O8 light chain variable domain (VL) (human)
[2] = target: Germline κI O18/O8 light chain variable domain (VL) (human); remark: listed apart in the source

- t50 of de novo (nonseeded) ThT fibril formation of 20 µM κI, pH 2.0, 37 °C [1]: 266 h
- yield of de novo fibril formation (percent of the initial monomer in fibrils) [2]: 93.4%
Substance: Germline κI O18/O8 light chain variable domain (VL) (domain or fragment)
